{
  "source": "patent US12358959B2",
  "about": "“Compositions and methods for oligodendrocyte development” (CHILDREN'S MEDICAL CENTER CORPORATION, priority 2016, dated 2025)",
  "biological_target": "T1, GPR56 (Mus musculus, UniProt Q8K209)",
  "T1 construct": "expressed in transfected cells; host or cells: HEK 293T",
  "T1 sequence (Q8K209 26-687)": "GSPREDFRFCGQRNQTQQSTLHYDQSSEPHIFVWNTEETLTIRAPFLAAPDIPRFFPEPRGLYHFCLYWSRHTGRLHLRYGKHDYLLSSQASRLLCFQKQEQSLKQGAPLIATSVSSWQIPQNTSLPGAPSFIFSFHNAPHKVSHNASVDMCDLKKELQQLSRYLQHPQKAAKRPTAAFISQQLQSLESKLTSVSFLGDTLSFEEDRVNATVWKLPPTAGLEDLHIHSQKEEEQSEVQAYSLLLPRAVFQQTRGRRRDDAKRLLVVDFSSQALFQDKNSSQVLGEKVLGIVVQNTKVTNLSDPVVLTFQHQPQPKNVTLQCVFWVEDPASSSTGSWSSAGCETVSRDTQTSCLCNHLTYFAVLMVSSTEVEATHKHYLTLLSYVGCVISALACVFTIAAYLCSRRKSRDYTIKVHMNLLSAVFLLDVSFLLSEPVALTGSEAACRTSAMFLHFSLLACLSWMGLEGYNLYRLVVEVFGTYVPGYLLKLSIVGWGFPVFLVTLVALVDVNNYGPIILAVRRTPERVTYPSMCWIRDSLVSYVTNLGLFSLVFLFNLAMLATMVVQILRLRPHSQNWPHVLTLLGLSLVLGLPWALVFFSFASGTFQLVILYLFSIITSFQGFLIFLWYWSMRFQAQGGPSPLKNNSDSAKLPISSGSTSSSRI",
  "assay": "TG2 activation assay: GPR56 NTF released into supernatant of HEK 293T cells (Western blot)",
  "format": "cell-based",
  "settings": "10 min, HEK 293T transfected with mouse Gpr56",
  "experimental": "HEK 293T cells were transiently transfected with mouse Gpr56 cDNA. Twenty-four hours after transfection, the cells were subject to serum starvation for 36 hr followed by the addition of recombinant TG2 250 nM with/without recombinant laminin-111 12.5 nM, or acetic acid as control for 10 min. The conditioned media were harvested, filtered, and concentrated as previously described. Equal volumes of the concentrated media were used for Western blot (Luo et al., PLOS One 9, e100043, 2014), while the cell pellets were used for GTP-Rho pull-down assay.",
  "data": [
    {"substance": "Transglutaminase 2 [TG2]", "values": [
      {"measurement": "Released GPR56 NTF in supernatant", "setting": "TG2 250 nM alone vs control", "value": "n.s."},
      {"measurement": "Released GPR56 NTF in supernatant", "setting": "TG2 250 nM with laminin-111 12.5 nM", "value": "removed the GPR56 NTF"}
    ]}
  ]
}
